Reference: patent US20040248202A1, “Bacteriorhodopsin/G protein-coupled receptor chimeras” (Wisconsin Alumni Research Foundation, priority 1998, published 2004)

Columns and labels:
transducin = transducin (Homo sapiens, UniProt P11488); experiment: GTPyS exchange assay in the presence of high affinity analog or random peptide; type: biochemical; conditions: for % Inhibition of GTPγS Uptake (Controlled for Peptide inhibition of Basal Exchange): 3C; for % Inhibition of GTPγS Uptake (Controlled for Peptide inhibition of Basal Exchange) / Specific counts (Lattice Form) / SPECIFIC COUNTS: (Lattice Form): 10 Minutes
Method: (§1) Chimeric or bacteriorhodopsin protein (1.7 uM) was incubated with 0.8 uM holotransducin with 10 nM ^35S radiolabeled GTPyS in buffer (20 mM Hepes (pH 7.5), 5 mM MgCl2, 1 mM DTT, 0.1 mM EDTA, and 20 mM NaCl). The reaction was incubated at 30° C. for 5, 10, 15 or 30 minutes. The reaction was terminated by transferring aliquots of the reaction mixture to nitrocellulose filters (0.45 um) prewetted with wash buffer (10 mM Tris (pH 7.5), 5 mM MgCl2, 100 mM NaC1, 0.1 mM EDTA) and placed on a vacuum manifold. The filters were then washed with 8 ml of wash buffer. The filters were then placed overnight in scintillation vials filled with 20 ml of scintillation cocktail. The activity of the vials was counted by a Liquid Scintillation Counter. For the BR-Rhodopsin loop 3 chimeras, in which the rhodopsin intracellular loop 3 replaced the native BR intracellular loop 3 and was fused from T157 on BR TM 5 to V167 on BR TM 6, activity was determined by an increased uptake of GTPS over basal exchange by transducin alone.
The high affinity analog has the sequence V-L-E-D-L-K-S-C-G-L-F-G (SEQ ID NO:43) (J. Biol. Chem. 271 pp. 361-366, 1996).
The random peptide consists of the sequence S-S-V-F-L-V-V-D-R-S-R (SEQ ID NO:44).
The addition of the high affinity analog at a final concentration of 8 uM gave the following results.
The second inhibition experiment used 50 uM of the high affinity analog.

holotransducin = holotransducin (Homo sapiens, UniProt P11488); experiment: Effects of GDP concentration on the basal exchange of GTPγS by holotransducin; type: biochemical; conditions: 10 Minutes
Method: as §1
The next set of experiments was designed to measure the effects of GDP concentration on the basal exchange of GTPγS by holotransducin.

[1] = Basal Exchange (no chimera) + 8 uM peptide

Sequence of transducin (P11488 2-350 limits assumed): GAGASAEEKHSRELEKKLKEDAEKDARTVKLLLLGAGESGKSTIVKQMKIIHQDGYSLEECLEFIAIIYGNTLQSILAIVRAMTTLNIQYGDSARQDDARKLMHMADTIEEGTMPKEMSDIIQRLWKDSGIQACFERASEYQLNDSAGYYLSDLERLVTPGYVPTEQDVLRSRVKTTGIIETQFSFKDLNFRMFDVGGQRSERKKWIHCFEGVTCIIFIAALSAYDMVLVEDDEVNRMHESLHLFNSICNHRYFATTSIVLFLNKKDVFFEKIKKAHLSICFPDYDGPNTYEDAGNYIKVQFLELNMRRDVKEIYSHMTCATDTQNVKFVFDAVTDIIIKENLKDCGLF
Sequence of transducin (P62873 2-340 partner limits assumed): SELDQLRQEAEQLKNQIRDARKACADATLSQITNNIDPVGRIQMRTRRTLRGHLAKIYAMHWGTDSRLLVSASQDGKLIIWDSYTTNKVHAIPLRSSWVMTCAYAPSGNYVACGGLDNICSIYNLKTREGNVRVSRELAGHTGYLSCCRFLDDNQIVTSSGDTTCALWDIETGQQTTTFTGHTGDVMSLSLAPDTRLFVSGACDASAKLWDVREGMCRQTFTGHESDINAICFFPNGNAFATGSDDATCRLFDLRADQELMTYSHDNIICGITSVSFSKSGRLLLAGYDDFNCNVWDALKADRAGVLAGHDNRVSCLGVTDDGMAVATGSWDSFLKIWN
Sequence of transducin (P63211 2-71 partner limits assumed): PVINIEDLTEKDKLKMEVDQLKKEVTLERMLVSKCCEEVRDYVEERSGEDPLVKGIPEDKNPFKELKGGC
Sequence of holotransducin (P11488 2-350 limits assumed): as the sequence (P11488 2-350 limits assumed) above
Sequence of holotransducin (P62873 2-340 partner limits assumed): as the sequence (P62873 2-340 partner limits assumed) above
Sequence of holotransducin (P63211 2-71 partner limits assumed): as the sequence (P63211 2-71 partner limits assumed) above

## V-L-E-D-L-K-S-C-G-L-F-G (VLEDLKSCGLFG) [High affinity analog]
transducin; 8 uM peptide
  % Inhibition of GTPγS Uptake (Controlled for Peptide inhibition of Basal Exchange): 23%
transducin; 50 uM peptide
  % Inhibition of GTPγS Uptake (Controlled for Peptide inhibition of Basal Exchange): 70%
transducin; 3C + 8 uM peptide
  Specific counts (Lattice Form): 42455 counts
transducin; 3C + 50 uM peptide
  SPECIFIC COUNTS: (Lattice Form): 46892 counts
transducin; [1]
  Specific counts (Lattice Form): 23154 counts
transducin; Basal Exchange (no chimera) + 50 uM peptide
  SPECIFIC COUNTS: (Lattice Form): 33888 counts
transducin; presence of peptide
  Effect on chimera-enhanced GTP-GDP exchange: inhibited

## Nc1nc2c(ncn2[C@@H]2O[C@H](COP(=O)(O)OP(=O)(O)O)[C@@H](O)[C@H]2O)c(=O)[nH]1 [GDP]
holotransducin; Basal Exchange + 10 uM GDP
  Specific counts (Lattice Form): 22885 counts
holotransducin; Basal Exchange + 50 uM GDP
  Specific counts (Lattice Form): 11061 counts
holotransducin; Basal Exchange + 100 uM GDP
  Specific counts (Lattice Form): 7502 counts

## S-S-V-F-L-V-V-D-R-S-R (SSVFLVVDRSR) [Random peptide]
transducin; 8 uM peptide
  % Inhibition of GTPγS Uptake (Controlled for Peptide inhibition of Basal Exchange): 5.8%
transducin; 50 uM peptide
  % Inhibition of GTPγS Uptake (Controlled for Peptide inhibition of Basal Exchange): 30%
transducin; 3C + 8 uM peptide
  Specific counts (Lattice Form): 47516 counts
transducin; 3C + 50 uM peptide
  SPECIFIC COUNTS: (Lattice Form): 35568 counts
transducin; [1]
  Specific counts (Lattice Form): 23868 counts
